Results from the DeepSol protein solubility set.

Experiment: soluble on expression in E. coli; label from the status in PepcDB or PDB records

Which “soluble on expression in E. coli” value does the source give for “GSMSLNDFLSSVLPVSEQFEYLSLQSIPLETHAVVTPNKDDKRVPKSTIKTQHFFSLFHQGKVFFSLEVYVYVTLWDEADAERLIFVSKADTNGYCNTRVSVRDITKIILEFILSIDPNYYLQKVKPAIRSTCPREILTKICLFTRPASQYLFPDSSKNSKKHILNGEELMKWWGFILDRLLIECFQNDTQAKLRIPGEDPARVRSYLRGMKYPLWQVGDIFTSKENSLAVYNIPLFPDDPKARFIHQLAEEDRLLKVSLSSFWIELQERQEFKLSVTSSVMGISGYSLATPSLFPSSADVIVPKSRKQFRAIKKYITGEEYDTEEGAIEAFTNIRDFLLLRMATNLQSLTGKREHRERNQPVPASNINTLAITMLKPRKKAKALPKT” here?
The value was “soluble”.

With “MRSLISSLDLTREEVEEILKYAKEFKEGKEETIKASAVLFFSEPSTRTRLSFEKAARELGIETYLVSGSESSTVKGESFFDTLKTFEGLGFDYVVFRVPFVFFPYKEIVKSLNLRLVNAGDGTHQHPSQGLIDFFTIKEHFGEVKDLRVLYVGDIKHSRVFRSGAPLLNMFGAKIGVCGPKTLIPRDVEVFKVDVFDDVDKGIDWADVVIWLRLQKERQKENYIPSESSYFKQFGLTKERFEKVKLYMHPGPVNRNVDIDHELVYTEKSLIQEQVKNGIPVRKAIYKFLWT” as the sequence, how does the “soluble on expression in E. coli” value read?
Its value is “soluble”.

For “GPGSMPSSSLSQSSAPRQPPLGDSGECRCSTLPPKPPLAGVEEPQPSDAEDPIPFLATMSMNQVGFLHARKCTRRDLLGTSLGNCPASENVLANGASHGIEATPLPGSRSATSTSFTSPTSAPLAPMAESECDVSYLEQMLMQIMDAAKAFANTSQAPSCDTAPQSADTLPACEYLLRKCFHFDTGAFKPRQQEVCLSVLAGVNTLAVCPTGWGKSLCFQFPMLVHRLLFQCRYTRWCRQAATAPAAAQQSSETAVKEGQTGASRFAGALPSAGLPAHLFSRFCVVVSPLLALMEDQAEKINAVDHLSAFVLSAKVGADREARVLAQLESPVCPLDILFVSPEN”, which “soluble on expression in E. coli” value is on record?
The value was “not soluble”.

Which “soluble on expression in E. coli” value does the source give for “MNNLALQSLTESIAIKYFGKAFKHEVYYNKRLRTTGGRYILSSHNIEINPKQYEMFGEKAVIDIIKHELCHYFLHLAGEGYQHRDKAFKSLSAKVGAPRFCTPTESYQDRANYKYRCIYCEQEFIRIKRVNLEKMRCGRCGGILKLLQTRKLEHHHHHH” here?
Its value is “not soluble”.

With “MDLYAVWGNPIAQSKSPLIQNKLAAQTHQTMEYIAKLGDLDAFEQQLLAFFEEGAKGCNITSPFKERAYQLADEYSQRAKLAEACNTLKKLDDGKLYADNTDGIGLVTDLQRLNWLRPNQHVLILGAGGATKGVLLPLLQAQQNIVLANRTFSKTKELAERFQPYGNIQAVSMDSIPLQTYDLVINATSAGLSGGTASVDAEILKLGSAFYDMQYAKGTDTPFIALCKSLGLTNVSDGFGMLVAQAAHSFHLWRGVMPDFVSVYEQLKKAMLLEHHHHHH” as the sequence, how does the “soluble on expression in E. coli” value read?
The value was “soluble”.

With “MGSDKIHHHHHHMIKVLHLFTTLDSGGVESFLFNYYSHIDRKKIQFDFIVPGKEQGFLEDKMKELGAKVYHVPLLRKKPLHQFLSLARIIKKGDYDIVHCHGYKSAIGLILSKIIGCKIRIIHSHMAYVTENSFQKVLRKLVTILVKILATHWFACGEDSAKWLYGEKAYKDGKIEIIFNAIDLKKYQFLSDVREKCRRELDVSNKFVLGNIARLSDQKNQSYLFNVLKELILIKPNVILLLVGNGEDEQKLKQKALELNLTPYVLFLGRRTDISDLLSAMDVFLLPSKYEGLPVSLVEAQASGLQILSSDTVTQEVDVTKNISYLPINEESVLLWKDKVLSLTSEECNRFEINNSMTDGLYDICYQASKLLNRYQEMCVIKEI” as the sequence, how does the “soluble on expression in E. coli” value read?
Its value is “not soluble”.

With “MISKYLVRDVMKKGVVEVTLDTKLSDVIKTMAKYDISSVVVSDGETFWGIITDTDVLKHYNDLDKTAEEIMTTNPITVSPEAPLEKAVEIMAEKGIHHLYVKSPCEDKIVGVLSSKDIIKLFSDLIE” as the sequence, how does the “soluble on expression in E. coli” value read?
Its value is “soluble”.

With “MGSDKIHHHHHHMQTFPAYSSMQLSLSPTQCQPLKIIALGDSLVYGFGDPDKGGWVEQLRRWWMLPDSSGHVLYNLGVRGDRTQQVAQRLEVEFRHRGELRNRVPDLIILSVGVNDSARLTRLNGRNCTDFALFESEIASLLDQAQQLCPVLFVGMVPVDEAKMPFLNCFYFNHADQYRYKEATRIACNQRQIPYLDIFDQWMARGDAWRNKRLTEDGLHPNTLGYQSLLEDVIHWEHLAGYHTRPDYQLK” as the sequence, how does the “soluble on expression in E. coli” value read?
The value was “not soluble”.

With “MGSDKIHHHHHHMNDFEEYIRQSEPHKREKGYAWQTAIGLQAVDGLKPSEYLKEKARQHIEGDITIDEVKQLVDSYYKSKVARSSSEDRTEEADKVSARITEILSENTFTFSPIEYLAIHRHLFEGIFSHAGQIRDYNITKNEWVLKGATVLYASAGSIRETLEYDFSQEKIFDYKNLNIDEAIRHIARFVSGIWQIHAFGEGNTRTTAVFTIKYLHTFGFNFSNETFANHSWYFRNALVRANYNDLTKGVYATTEFLEKFFRNLILNEQNELKNRNLQIDEIEKEAIQSAKQTDMDIPKCKNCTLDCTLEEIAVLNYLKEKPNATQKEIAQHIGKSERTVKSMTVNLSERGIIERKNGRRNGFWEIKK” as the sequence, how does the “soluble on expression in E. coli” value read?
The value was “not soluble”.

For “YCTLADLQLAIPQATLTQLTNDVPADYSVAQEPNLAVVEEAVRQAEELVDAHLRGRYVLPLVTVPSVIKDNTVNLARHWLYARRPEGNELPDAVTRTYKAALQILESIRDGKLHIGVPTGEAAPEPGEVRVRARRQLFSASM”, which “soluble on expression in E. coli” value is on record?
The value was “not soluble”.

Which “soluble on expression in E. coli” value does the source give for “GMSTAAESEIRQLIERWMQAVRDRDIPGIIAPYADDIVAFDAIQALQFKGKSAYTAHWEMCMGMCTGPMVFELAQLTVHAAGDLALAHWLNRCGPGDDESQCGFMRATVGYRRQGGQWQVIHEHWSAPFDMETQKALFDLKP” here?
The value was “soluble”.

For “MTSAYFGVAGGGNAGAQSAYFGVGGGPAGGGGGNKSAGGGGAPPPGVSCYLGAGAGGAASGSQSAYFGVGGGPVGGGGGGGAPPAASNDAGYFATPPAAPAGGSSTMTAVGGAPRGASTMTAVGGAPVGGSSTMTAVGGAPSGASTMTAIGGAPRGASTMTAVGGAPMGGGSTMTAVGGAPSGASTMTAVGGAPSGASTMTAIGGAPRGASTMTAVGGAPMGGSSTMTAVGGAPIGGSSTMTAVGGAPRGASTMTAVGGAPGGASTMTAMGGGPSAFGGAPPPPSGSAMGGGGGGGATSAYFGVGSGAMGGGGAGAQSAYFGVGGGPVGGGGGGAKSGGGGGGIPGQSVYMGAGGGGGGGGGGGATSAYFAPR”, which “soluble on expression in E. coli” value is on record?
Its value is “not soluble”.

For “MGSDKIHHHHHHTVPTFYLFGLLIMHNAAQHNYVISLTTEQKRRKHITEEFGKQNIPFEFFDAITPDIIEETAKKFNITLDRSPKAKLSDGEIGCALSHIVLWDLALENNLNYINIFEDDIHLGENAKELLEIDYISDDIHVLKLEANGKMFFKQPKSVKCDRNVYPMTVKQSGCAGYTVTAKGAKYLLELVKNKPLDVAVDSLVFEDFLHFKDYKIVQLSPGICVQDFVLHPDNPFESSLQEGRDRVHGNQRKSSILEKIKNEFGRVKIKMFGKQVPFK”, which “soluble on expression in E. coli” value is on record?
The value was “not soluble”.

For “MSLARHEAIVEPAQSTHTSGAHTSGAQAQPGVRPTTAAGRWRDVEMMAYKQDDAAPFRDVTRQLLFSDPRLACEWRYFEVAAGGYSTLEKHDHVHGVMIHRGKGQCLVGHHVSDVAVGDLVFIPPQTWHQFRANAGDVLGFLCLVNAERDRPQLPGDGDLAALRADPAIADFLSSEGHHHHHH”, which “soluble on expression in E. coli” value is on record?
Its value is “soluble”.

For “MGSDKIHHHHHHMGDLTADVLVIGGGTAGFGAAVAAGRLGLDVVLLEAGTKVGGVMAFCPGMPWGAAYPQDESIGGLMQELTDRLMGMDPPMAEKRPCTLENFGPEIQYDHDAATTMMFEMLEEAGVRVFLGAVAFAPVMEGNRIAAVEFFDRRCPQRIAAKIVIDCSGDGDISAKAGVPFTLGDGQGNMMAVTLSFFMEGADWDRVFAENDPYFRRYAAKGIAEGRLHPHLAQLYLMKGFHPGTVFCNSVAIRGVDGTDPADVTRATQEGRRRCLQLAQFLRADVPGFEAAHMSQLGPTVGVRETRKLEGMYKVTGADLAAGTKFADGIVACDNPIDDVMRTSDQMTHDAMVERGGYYTIPFRSLLPKAVANLMFAGRILSADLVAFASVRGMPQCMAMGQATGTAAHLAIRDGAPVQQVDRAELVKLLSEQGVSRLLS”, which “soluble on expression in E. coli” value is on record?
The value was “not soluble”.

With “MAEKKKEEKESKETEVFILKLENTTVTFTNPKLGDEVTIASLNLTNPTKDRYAFKIKCTSNQLFKIKSPVGYINPEESLTIPVYHYPATVIPENNKHYFVVYYIKAANTVKEKIPVRDLWKAAASSEGTRRVFIDFKKPELPPTEAEDGKMGDDKKKGKKDDKKEEKDGKKDEKKDGSDEEGKKDEGKGEKKEEKKDDKKDDKKDDKKEEKKEDGAKK” as the sequence, how does the “soluble on expression in E. coli” value read?
The value was “soluble”.

With “MLMAATIPHIETITFTDWFLAIIDTPDIPIDEIEIRVAEGFKRKLTERQFQQLTELIHLISFIKHKKISNPTLALRIYVDENTSSLSRTALVEAVRMLPPEDNKTYELAAYLAQKNKLERYTNITKVPPLQIYQGDGVFEQYDEWILLFELFGLTQATPSDFIPAIAHLLITKNLGIPDLRALSKFMSTTHKLGILSQSFMNNMTPHLCNGQIIEKYESLLLKLQINDLLTEEILEVIYPLLNQPDALDAFFSLYHEEPSHDSALSFLREILPSFCAMSLPSKESYDDQVPTNTPLHLAVIESDKGNLERTLAFANRNLLIKCSYENTALLLACKLADKESARLILAKMQELGCDVNQRDHHGMTALHWANFYHFDELIRELEIAGADPQLKAANGKTCEYFYQHQFTLKDLKLNGKEIIDGEFKLSDCALTDIAFHMDKIALNLKLTTPSEIAELYARDEIAQIRSSNRFYLFFKLFRPKLINWLEKQNDLEPQVTYRFSGQSSSA” as the sequence, how does the “soluble on expression in E. coli” value read?
The value was “not soluble”.

With “MGCVGAGADAEGREARKVNKQIEEQLAKDKQVMRATHRLLLLGAGESGKSTIVKQMRILHINGFNEAEKREKITDIRRNVRDAMQVILRAMDEIVPKVSLDDPSTAISRDYILRITNDPEDNYPSEFYDHILTCWKDKGVMACYERSSEYQLIDCAQYFLDKVDVVRQNNYDPSEQDILRCRVMTTGIFETKFEVDKVRFHMFDVGGQRDERRKWIQCFNDVTAIIFVCASSSYNLVLWEDNTQNRLRESLALFKNIWNNRWLKTISVILFLNKQDLLSEKIKAKRYLLESFFPEFEGYNLPNDAVFDNQEDKDVVRAKYFIRGEFLRISTANSDGRHHCYPHFTCAVDTENIRRVFNDCRDIIQRIHLRQYELL” as the sequence, how does the “soluble on expression in E. coli” value read?
The value was “not soluble”.

With “SNAMKFLTVSDDMNFLRQVNTLVAGKGDMDSVIIGEGDAKGLGSKVLYRAKKGTPFDAVSEGILKIAGNYDYIAIGSTEVGREIAGYLSFKTGFYTATEIFSLEFNGQKAHTKRFFYGGKTVIEEESDARILTVAPGVIEAKDLGTTPEIRDLEIGQSRIKITKFV” as the sequence, how does the “soluble on expression in E. coli” value read?
The value was “soluble”.

With “MTSVGVPIKILHEAEGHMVTLETVTGEVYRGKLSEAEDNMNCQLAETVVTFRDGRSHQLDNVFIRGNKIRFMILPDMLKNAPMFKNIGRAQKGAIGMGLGGLDQRGRGRGTAFRRPMGRGGPRGMSRPGGAPTFRG” as the sequence, how does the “soluble on expression in E. coli” value read?
The value was “not soluble”.

Which “soluble on expression in E. coli” value does the source give for “MRALGQNPTNAEVLKVLGNPKSDEMNVKVLDFEHFLPMLQTVAKNKDQGTYEDYVEGLRVFDKEGNGTVMGAEIRHVLVTLGEKMTEEEVEMLVAGHEDSNGCINYEELVRMVLNG” here?
Its value is “soluble”.
